The supplement of paper PMC12855868

B1: library; numbered along this chain (parent)
chain: MAAAGGARLLRAASAVLGGPAGRWLHHAGSRAGSSGLLRNRGPGGSAEASRSLSVSARARSSSEDKITVHFINRDGETLTTKGKVGDSLLDVVVENNLDIDGFGACEGTLACSTCHLIFEDHIYEKLDAITDEENDMLDLAYGLTDRSRLGCQICLTKSMDNMTVRVPETVADARQSIDVGKTS

Variants of: B1
Assay: scaled log2 fold change in cell abundance, elesclomol vs control (0 = silent mean, 1 = nonsense mean) (scaled log2 ratio); higher = higher viability under elesclomol (loss of FDX1 cuproptosis function)
Conditions: glucose 10 mM
[1] = with ABC1 FDX1 KO, elesclomol 5 nM, 14 days
[2] = with HEK293T FDX1 KO, elesclomol 40 nM, 11 days
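Also: variant abundance is its share of total variant reads in each endpoint sample, from next-generation sequencing of the integrated ORF PCR-amplified out of genomic DNA.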

Variant: G102A
- scaled log2 fold change [1]: 0.0393
- scaled log2 fold change [2]: -0.812

Variant: G102P
- scaled log2 fold change [1]: 0.0181
- scaled log2 fold change [2]: -0.00988

Variant: G102W
- scaled log2 fold change [1]: 0.225
- scaled log2 fold change [2]: 0.879

Variant: G102T
- scaled log2 fold change [1]: -0.0667
- scaled log2 fold change [2]: 2.33

Variant: G104M
- scaled log2 fold change [1]: 0.794
- scaled log2 fold change [2]: 0.449

Variant: G104N
- scaled log2 fold change [1]: 0.899
- scaled log2 fold change [2]: 1.47

Variant: G104C
- scaled log2 fold change [1]: 0.959
- scaled log2 fold change [2]: 1.19

Variant: G104Q
- scaled log2 fold change [1]: 1.05
- scaled log2 fold change [2]: 0.891

Variant: G104F
- scaled log2 fold change [1]: 0.647
- scaled log2 fold change [2]: 0.268

Variant: G104D
- scaled log2 fold change [1]: 1.12
- scaled log2 fold change [2]: 0.43

Variant: G104R
- scaled log2 fold change [1]: 0.848
- scaled log2 fold change [2]: 0.682

Variant: G104L
- scaled log2 fold change [1]: 1.03
- scaled log2 fold change [2]: 0.779

Variant: G104W
- scaled log2 fold change [1]: 0.96
- scaled log2 fold change [2]: 0.69

Variant: G104Y
- scaled log2 fold change [1]: 0.933
- scaled log2 fold change [2]: 1.09

Variant: G104T
- scaled log2 fold change [1]: 0.997
- scaled log2 fold change [2]: 1.59

Variant: G104E
- scaled log2 fold change [1]: 1.19
- scaled log2 fold change [2]: 0.941

Variant: G104K
- scaled log2 fold change [1]: 0.879
- scaled log2 fold change [2]: 0.468

Variant: G104S
- scaled log2 fold change [1]: 0.931
- scaled log2 fold change [2]: 0.363

Variant: G104P
- scaled log2 fold change [1]: 1.02
- scaled log2 fold change [2]: 0.598

Variant: G104A
- scaled log2 fold change [1]: 0.243
- scaled log2 fold change [2]: -1.55

Variant: G104H
- scaled log2 fold change [1]: 0.989
- scaled log2 fold change [2]: 0.725

Variant: G104I
- scaled log2 fold change [1]: 0.933
- scaled log2 fold change [2]: 1.53

Variant: G104V
- scaled log2 fold change [1]: 0.949
- scaled log2 fold change [2]: 1.02

Variant: T109A
- scaled log2 fold change [1]: -0.1
- scaled log2 fold change [2]: 0.103

Variant: T109D
- scaled log2 fold change [1]: -0.669
- scaled log2 fold change [2]: 0.407

Variant: T109V
- scaled log2 fold change [1]: -0.651

Variant: T109E
- scaled log2 fold change [1]: -0.14

Variant: T109K
- scaled log2 fold change [1]: -0.296
- scaled log2 fold change [2]: -0.481

Variant: T109W
- scaled log2 fold change [1]: -0.657
- scaled log2 fold change [2]: 0.253

Variant: T109M
- scaled log2 fold change [1]: -0.267
- scaled log2 fold change [2]: 1.01

Variant: T109Y
- scaled log2 fold change [1]: -0.087

Variant: T109Q
- scaled log2 fold change [1]: -0.041

Variant: T109P
- scaled log2 fold change [1]: 0.947
- scaled log2 fold change [2]: 0.81

Variant: T109L
- scaled log2 fold change [1]: -0.315
- scaled log2 fold change [2]: 0.377

Variant: T109G
- scaled log2 fold change [1]: 0.318
- scaled log2 fold change [2]: 0.43

Variant: T109C
- scaled log2 fold change [1]: -0.244
- scaled log2 fold change [2]: -0.121

Variant: T109F
- scaled log2 fold change [1]: -0.985
- scaled log2 fold change [2]: -0.223

Variant: T109H
- scaled log2 fold change [1]: -0.34
- scaled log2 fold change [2]: -0.84

Variant: T109I
- scaled log2 fold change [1]: -0.689
- scaled log2 fold change [2]: -0.157

Variant: T109S
- scaled log2 fold change [1]: -1.08
- scaled log2 fold change [2]: -0.288

Variant: T109R
- scaled log2 fold change [1]: -0.153
- scaled log2 fold change [2]: 1.07

Variant: T109N
- scaled log2 fold change [1]: -0.076
- scaled log2 fold change [2]: 0.456

Variant: C112G
- scaled log2 fold change [1]: 1.15
- scaled log2 fold change [2]: 1.18

Variant: C112D
- scaled log2 fold change [1]: 0.906
- scaled log2 fold change [2]: 2.02

Variant: C112F
- scaled log2 fold change [1]: 1.02
- scaled log2 fold change [2]: 1.25

Variant: C112M
- scaled log2 fold change [1]: 1.09
- scaled log2 fold change [2]: 1.24

Variant: C112Y
- scaled log2 fold change [1]: 1.09
- scaled log2 fold change [2]: 1.3

Variant: C112I
- scaled log2 fold change [1]: 0.989
- scaled log2 fold change [2]: 1.33

Variant: C112S
- scaled log2 fold change [1]: 0.988
- scaled log2 fold change [2]: 0.991

Variant: C112K
- scaled log2 fold change [1]: 1.12
- scaled log2 fold change [2]: 1.35

Variant: C112V
- scaled log2 fold change [1]: 1.21
- scaled log2 fold change [2]: 1.04

Variant: C112Q
- scaled log2 fold change [1]: 1.01
- scaled log2 fold change [2]: 1.1

Variant: C112R
- scaled log2 fold change [1]: 1.08
- scaled log2 fold change [2]: 1.29

Variant: C112P
- scaled log2 fold change [1]: 1.17
- scaled log2 fold change [2]: 0.87

Variant: C112W
- scaled log2 fold change [1]: 1.17
- scaled log2 fold change [2]: 0.573

Variant: C112T
- scaled log2 fold change [1]: 1.16
- scaled log2 fold change [2]: 0.679

Variant: C112A
- scaled log2 fold change [1]: 1.16
- scaled log2 fold change [2]: 1.03

Variant: C112L
- scaled log2 fold change [1]: 0.979
- scaled log2 fold change [2]: 1.26

Variant: C112H
- scaled log2 fold change [1]: 0.978
- scaled log2 fold change [2]: 1.42

Variant: C112E
- scaled log2 fold change [1]: 1.07
- scaled log2 fold change [2]: 0.951

Variant: C112N
- scaled log2 fold change [1]: 0.953
- scaled log2 fold change [2]: 1.22

Variant: D101K
- scaled log2 fold change [1]: 0.0609
- scaled log2 fold change [2]: 0.803

Variant: D101L
- scaled log2 fold change [1]: -0.471
- scaled log2 fold change [2]: -0.161

Variant: D101N
- scaled log2 fold change [1]: -0.201
- scaled log2 fold change [2]: -0.0138

Variant: D101C
- scaled log2 fold change [1]: -0.242
- scaled log2 fold change [2]: 0.242

Variant: D101I
- scaled log2 fold change [1]: -0.248
- scaled log2 fold change [2]: -0.191

Variant: D101M
- scaled log2 fold change [1]: 0.241
- scaled log2 fold change [2]: 0.684

Variant: D101R
- scaled log2 fold change [1]: 0.0225
- scaled log2 fold change [2]: -0.328

Variant: D101F
- scaled log2 fold change [1]: -0.332
- scaled log2 fold change [2]: 0.0209

Variant: D101H
- scaled log2 fold change [1]: -0.018
- scaled log2 fold change [2]: -0.455

Variant: D101Q
- scaled log2 fold change [1]: 0.0405
- scaled log2 fold change [2]: -0.42

Variant: D101W
- scaled log2 fold change [1]: 0.326
- scaled log2 fold change [2]: -0.257

Variant: D101V
- scaled log2 fold change [1]: 0.24
- scaled log2 fold change [2]: -0.613

Variant: D101A
- scaled log2 fold change [1]: -0.221
- scaled log2 fold change [2]: -0.578

Variant: D101E
- scaled log2 fold change [1]: 0.0987
- scaled log2 fold change [2]: -0.481

Variant: D101G
- scaled log2 fold change [1]: 0.085
- scaled log2 fold change [2]: -0.787

Variant: D101P
- scaled log2 fold change [1]: -0.357
- scaled log2 fold change [2]: -0.96

Variant: D101S
- scaled log2 fold change [1]: -0.19
- scaled log2 fold change [2]: -0.82

Variant: D101T
- scaled log2 fold change [1]: -0.218
- scaled log2 fold change [2]: -0.744

Variant: D101Y
- scaled log2 fold change [1]: 0.239
- scaled log2 fold change [2]: 1.05

Variant: E107L
- scaled log2 fold change [1]: -0.267
- scaled log2 fold change [2]: -0.452

Variant: E107Y
- scaled log2 fold change [1]: 0.333
- scaled log2 fold change [2]: -0.16

Variant: E107C
- scaled log2 fold change [1]: 0.0589
- scaled log2 fold change [2]: 0.444

Variant: E107V
- scaled log2 fold change [1]: 0.145
- scaled log2 fold change [2]: 0.849

Variant: E107H
- scaled log2 fold change [1]: -0.0248
- scaled log2 fold change [2]: 0.933

Variant: E107A
- scaled log2 fold change [1]: 0.00703
- scaled log2 fold change [2]: -0.202

Variant: E107R
- scaled log2 fold change [1]: -1.12
- scaled log2 fold change [2]: 1.26

Variant: E107N
- scaled log2 fold change [1]: 0.0244
- scaled log2 fold change [2]: -0.796

Variant: E107I
- scaled log2 fold change [1]: 0.227
- scaled log2 fold change [2]: 0.0716

Variant: E107T
- scaled log2 fold change [1]: -0.333
- scaled log2 fold change [2]: 0.112

Variant: E107G
- scaled log2 fold change [1]: -0.152
- scaled log2 fold change [2]: 0.114

Variant: E107D
- scaled log2 fold change [1]: -0.195
- scaled log2 fold change [2]: 0.683

Variant: E107K
- scaled log2 fold change [1]: -0.532
- scaled log2 fold change [2]: 0.255

Variant: E107Q
- scaled log2 fold change [1]: -0.324
- scaled log2 fold change [2]: -0.527

Variant: E107M
- scaled log2 fold change [1]: -0.428
- scaled log2 fold change [2]: -0.835

Variant: E107P
- scaled log2 fold change [1]: 0.92
- scaled log2 fold change [2]: 0.951

Variant: E107W
- scaled log2 fold change [1]: 0.121
- scaled log2 fold change [2]: -0.686

Variant: E107F
- scaled log2 fold change [1]: -0.754
- scaled log2 fold change [2]: -1.14

Variant: L110K
- scaled log2 fold change [1]: 0.374
- scaled log2 fold change [2]: -0.159

Variant: L110E
- scaled log2 fold change [1]: 0.704
- scaled log2 fold change [2]: 0.547

Variant: L110W
- scaled log2 fold change [1]: 0.568
- scaled log2 fold change [2]: 0.351

Variant: L110Y
- scaled log2 fold change [1]: 0.609
- scaled log2 fold change [2]: 0.0828

Variant: L110N
- scaled log2 fold change [1]: 0.111
- scaled log2 fold change [2]: -0.0165

Variant: L110D
- scaled log2 fold change [1]: 0.955
- scaled log2 fold change [2]: 0.687

Variant: L110V
- scaled log2 fold change [1]: 0.108
- scaled log2 fold change [2]: -0.578

Variant: L110A
- scaled log2 fold change [1]: 0.303
- scaled log2 fold change [2]: -0.448

Variant: L110G
- scaled log2 fold change [1]: -1.14
- scaled log2 fold change [2]: -0.656

Variant: L110Q
- scaled log2 fold change [1]: -0.0207
- scaled log2 fold change [2]: -0.0815

Variant: L110I
- scaled log2 fold change [1]: -0.0941
- scaled log2 fold change [2]: -0.421

Variant: L110S
- scaled log2 fold change [1]: -0.279
- scaled log2 fold change [2]: 1.18

Variant: L110T
- scaled log2 fold change [1]: 0.401
- scaled log2 fold change [2]: 0.383

Variant: L110M
- scaled log2 fold change [1]: 0.297
- scaled log2 fold change [2]: 0.602

Variant: L110P
- scaled log2 fold change [1]: 0.33
- scaled log2 fold change [2]: -0.14

Variant: L110R
- scaled log2 fold change [1]: -0.0668
- scaled log2 fold change [2]: 1.07

Variant: L110H
- scaled log2 fold change [1]: 0.0622
- scaled log2 fold change [2]: 0.156

Variant: L110C
- scaled log2 fold change [1]: 0.439
- scaled log2 fold change [2]: -1.38

Variant: L110F
- scaled log2 fold change [1]: 0.167
- scaled log2 fold change [2]: 0.528
